In US20210338751A1:

What was measured:
[1] = target: recombinant HuNoV GI.1 P domain (Human Norovirus (HuNoV) GI.1); test: ELISA on recombinant HuNoV GI.1 P domain, Spirulina-expressed Ni-NTA purified protein after freeze-drying
[2] = target: recombinant HuNoV GI.1 P domain (Human Norovirus (HuNoV) GI.1); test: ELISA on recombinant HuNoV GI.1 P domain, Spirulina-expressed Ni-NTA purified protein, sample B2, not freeze-dried
[3] = target: recombinant HuNoV GI.1 P domain (Human Norovirus (HuNoV) GI.1); test: ELISA on recombinant HuNoV GI.1 P domain, Spirulina-expressed Ni-NTA purified protein, sample B1, not freeze-dried
[4] = target: recombinant HuNoV GII.3 P domain (Human Norovirus (HuNoV) GII.3); test: ELISA on recombinant P domain
[5] = target: recombinant HuNoV GII.10 P domain (Human Norovirus (HuNoV) GII.10); test: ELISA on recombinant P domain
[6] = target: recombinant HuNoV GII.17 P domain (Human Norovirus (HuNoV) GII.17); test: ELISA on recombinant P domain
[7] = target: recombinant HuNoV GII.4 P domain (Human Norovirus (HuNoV) GII.4); test: ELISA on recombinant P domain
[8] = target: GII.10 VLPs (human norovirus genotype GII.10); test: blocking of GII.10 VLP binding to pig gastric mucin (HBGA)

B1: Nano94 (no chaperone partner) (VHH)
VHH: QVQLQESGGGLVQAGGSLRLSCAASGRMFSINSMGWYRQAPGKERELVATISEAGTTTYADSVRGRFTIARDNAKNTVYLQMNSLNPEDTAVYYCNAYIQLDSTIWFRAYWGQGTQVTVSS
[1]
  EC50: 25.9 nM
[2]
  EC50: 17.1 nM
[3]
  EC50: 21.2 nM

B2: Nano26-TxnA (VHH, not shown: large carriers)
VHH: QVQLQESGGGLVQPGGSLRLSCTAPRIIFFMYDVGWYRQAPEKQRELVAQINSDVSTKYADSVKGRFTISRDNAKRTVYLQMNDLKPEDAAVYYCNVRRASADYWGQGTQVTVSS
[4]
  EC50: 4.46 nM
[5]
  EC50: 1.46 nM
[6]
  EC50: 2.52 nM
[7]
  EC50: 15.4 nM

B3: SP828 (VHH)
VHH: QVQLQESGGGLVQSGGSLRLSCAASRNINSMHVVGWYRQAPGNQRELVASITDDGSTDYVDSVKGRFTISRDIAENTVYLQMNSLNPEDTAVYYCKGTIVVFTTPMHYWGKGTQVTVSS
[8]
  IC50 (read off the curve): 1 µg/mL
